Measurements published in patent publication US20190359687A1 (Bayer, published 2019).

T1: human glycophorin A in the red blood cell membrane (human, UniProt P02724 20-150)
T1 construct: whole, on cells; used for intact RBC, isolated RBC membranes and transfected cells; the assay field tells which; also called GPA; hGPA
T1 sequence (looked up): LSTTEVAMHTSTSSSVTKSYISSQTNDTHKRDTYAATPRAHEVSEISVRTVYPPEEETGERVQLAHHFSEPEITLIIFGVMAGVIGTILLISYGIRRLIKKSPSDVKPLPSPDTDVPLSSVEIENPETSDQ

T2: purified human glycophorin A protein (Sigma, cat # G5017) (human, UniProt P02724 20-150)
T2 construct: mature; also called Sigma hGPA; Sigma GPA
T2 sequence (looked up): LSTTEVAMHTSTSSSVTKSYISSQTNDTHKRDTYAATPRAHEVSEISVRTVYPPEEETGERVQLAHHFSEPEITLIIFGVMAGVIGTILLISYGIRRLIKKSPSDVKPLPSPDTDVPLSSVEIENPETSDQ

T3: recombinant human GPA ectodomain (human, UniProt P02724 20-91)
T3 construct: also called recombinant hGPA ECD; recGPA
T3 sequence: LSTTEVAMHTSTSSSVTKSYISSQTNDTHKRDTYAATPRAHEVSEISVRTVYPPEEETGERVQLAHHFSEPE

T4: human glycophorin A on human red blood cells or red blood cell membranes (human, UniProt P02724 20-150)
T4 construct: whole, on cells; also called hRBC; human RBC membranes
T4 sequence (looked up): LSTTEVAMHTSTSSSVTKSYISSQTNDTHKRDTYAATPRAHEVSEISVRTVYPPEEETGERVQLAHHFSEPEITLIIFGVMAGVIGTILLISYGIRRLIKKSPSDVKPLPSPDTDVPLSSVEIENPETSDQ


Experiments:
[1] = target: T1, human glycophorin A in the red blood …; assay: SPR (Biacore), single cycle kinetics, human RBC membranes on L1 sensor, Fab flowed over
Protocol: Kinetic analysis of the antibody binding to human red blood cell membranes was also performed using surface plasmon resonance (SPR) using a Biacore instrument. In this assay membranes prepared from human red blood cells were attached to a L1 sensor matrix and antibodies were flowed over the RBC membranes.

[2] = target: T2, purified human glycophorin A protein …; assay: ELISA, native hGPA
[3] = target: T3, recombinant human GPA ectodomain; assay: ELISA, rec hGPA ectodomain
[4] = target: T1, human glycophorin A in the red blood …; assay: ELISA, human RBC membranes;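 note: antibodies bound to isolated human red blood cell membrane ghosts coated on 96-well plates, tested 1.5 h at room temperature, bound antibody quantified with a detection antibody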
Protocol: In order to evaluate binding of antibodies to GPA in the native context of the red blood cell membrane we made use of isolated red blood cell membranes, also called red blood cells ghosts. These membranes are prepared by first isolating red blood cells from citrated whole blood. Citrated whole blood is layered on to Ficol and centrifuged at low speed for 20 minutes to pellet the red blood cells. The supernatant containing plasma and other blood cells is discarded and the red blood cell pellet is subsequently washed 3 times in 10 cell volumes of phosphate buffered saline (PBS). A 10 ml pellet of purified red blood cells is resuspended in 30 ml of cold low osmorality 20 mM phosphate buffer (pH7.4) and incubated for 30 mins to break open the RBC. After Centrifugation at 10,000 rpm for 30 min at 5° C. the hemoglobin containing supernatant is discarded. To the membrane pellet another 30 ml of 20 mM phosphate buffer is added and the sample centrifuged again at 10,000 rpm for 30 min at 5° C. to pellet the membrane fraction. This wash and centrifugation step is repeated another 4 times. The red blood cell membranes are then resuspended in 20 mL of PBS to achieve an equivalent of approximately 2.5E9 cells/mL and stored frozen at −20° C. Binding of antibodies to RBC ghost can be measured by ELISA in which the RBC ghost suspension (5×10⁶ in 100 ul PBS) was added to each well of flat bottom 96-well ELISA microtiter plates (2HB, Immunolon) and the plates incubated overnight at 4° C. The plates were blocked with Starting blocking buffer (Thermo Fisher) for 2 hours at room temperature (RT). Antibodies or other test molecules were added to each well and incubated for 1.5 hours at RT. After 4 washes 100 ul of an appropriate detection antibody was added to each well and incubated for 1 hour at RT. After 4 washes the detection antibody was measured using appropriate detection reagents.

[5] = target: T4, human glycophorin A on human red blood …; assay: scFv 7 ug/ml on intact human RBC, unbound scFv by ELISA; pre-dilution
Protocol: (§1) RBC diluted to 1/10th of normal hematocrit were incubated with the set of “Top 10” purified scFv antibodies at a final concentration of 7 ug/ml for 1 hour at room temperature on a rotating shaker after which a sample was taken and the RBC were pelleted by centrifugation and the supernatant was collected. The remaining RBC suspension was diluted 200-fold in PBS buffer and incubated for a total of 2 hours at room temperature on a rotating shaker and samples were removed at 0, 5 min, 20 min, 1 h and 2 h and the RBC pelleted and the supernatant collected. […] The percentage that remains bound after dilution is an indication of the overall strength of the binding to human RBC.

[6] = target: T4, human glycophorin A on human red blood …; assay: scFv on intact human RBC, unbound scFv by ELISA; 5 min after 200-fold dilution
Protocol: as §1

[7] = target: T4, human glycophorin A on human red blood …; assay: scFv on intact human RBC, unbound scFv by ELISA; 20 min after 200-fold dilution
Protocol: as §1

[8] = target: T4, human glycophorin A on human red blood …; assay: scFv on intact human RBC, unbound scFv by ELISA; 60 min after 200-fold dilution
Protocol: as §1

[9] = target: T4, human glycophorin A on human red blood …; assay: scFv on intact human RBC, unbound scFv by ELISA; 120 min after 200-fold dilution
Protocol: as §1

[10] = target: T4, human glycophorin A on human red blood …; assay: scFv on intact human RBC, unbound scFv by ELISA; 0 min after 200-fold dilution
Protocol: as §1

Binder	Kd [1] [nM]	koff [1] [s⁻¹]	kon [1] [M⁻¹ s⁻¹]	binding by ELISA relative to parental [2]	binding by ELISA relative to parental [3]	binding by ELISA relative to parental [4]	percentage of input scFv antibody bound [5] [%]	percentage of input scFv antibody bound [6] [%]	percentage of input scFv antibody bound [7] [%]	percentage of input scFv antibody bound [8] [%]	percentage of input scFv antibody bound [9] [%]	percentage of input scFv antibody bound [10] [%]
TPP-5348 (Fab, V domains shown, also called VL: (S49A)) VH: EVQLVQSGAEVKKPGASVKVSCKASGYTFTTYTIHWVRQAPGQGLEWIGYINPSSDYTRYNPKFKDRVTLTTDKSTSTAYMELRSLRSDDTAVYYCQTGTRDYWGQGTTVTVSS VL: DIQLTQSPSFLSASVGDRVTITCSAASSVSYIYWFQQKPGKAPKLLIYATSTLPSGVPSRFSGSGSGTEYTLTISSLQPEDFATYYCHQRNSFPFTFGQGTKLEIKR	25	0.019	740000	1.62	1.5	1.76						
TPP-5350 (Fab, V domains shown, also called VL: (P54Q)) VH: EVQLVQSGAEVKKPGASVKVSCKASGYTFTTYTIHWVRQAPGQGLEWIGYINPSSDYTRYNPKFKDRVTLTTDKSTSTAYMELRSLRSDDTAVYYCQTGTRDYWGQGTTVTVSS VL: DIQLTQSPSFLSASVGDRVTITCSAASSVSYIYWFQQKPGKAPKLLIYSTSTLQSGVPSRFSGSGSGTEYTLTISSLQPEDFATYYCHQRNSFPFTFGQGTKLEIKR	34	0.021	610000	1.45	1.7	1.64						
Fab papain 6C12-24 (Fab, V domains shown, also called parent: Fab 6C12-24) VH: EVQLVQSGAEVKKPGASVKVSCKASGYTFTTYTIHWVRQAPGQGLEWIGYINPSSDYTRYNPKFKDRVTLTTDKSTSTAYMELRSLRSDDTAVYYCQTGTRDYWGQGTTVTVSS VL: DIQLTQSPSFLSASVGDRVTITCSAASSVSYIYWFQQKPGKAPKLLIYSTSTLPSGVPSRFSGSGSGTEYTLTISSLQPEDFATYYCHQRNSFPFTFGQGTKLEIK	130	0.048	370000									
TPP-7793 scFv with C-terminal 6xHIS tag (scFv) scFv: DIQLTQSPSFLSASVGDRVTITCRASSSVSYIYWFQQKPGKAPKLLIYATSTLQSGVPSRFSGSGSGTEYTLTISSLQPEDFATYYCHQRNSFPYTFGQGTKLEIKGGGGSGGGGSGGGGSGGGGSEVQLVQSGAEVKKPGASVKVSCKASGYTFTRYTIHWVRQAPGQGLEWMGYINPSSGYTRYNPKFKGRVTMTRDKSTSTAYMELRSLRSDDTAVYYCWTGTRDYWGQGTTVTVSSHHHHHH							92	92	84	81	79	92
TPP-7795 scFv with C-terminal 6xHIS tag (scFv) scFv: DIQLTQSPSFLSASVGDRVTITCRASSSVSYIYWFQQKPGKAPKLLIYATSFLQSGVPSRFSGSGSGTEYTLTISSLQPEDFATYYCHQRNSFPYTFGQGTKLEIKGGGGSGGGGSGGGGSGGGGSEVQLVQSGAEVKKPGASVKVSCKASGYTFTTYTIHWVRQAPGQGLEWMGYINPKSGWTRYNPKFKGRVTMTRDKSTSTAYMELRSLRSDDTAVYYCQTGTRDYWGQGTTVTVSSHHHHHH							100	85	82	84	80	100
TPP-7797 scFv with C-terminal 6xHIS tag (scFv) scFv: DIQLTQSPSFLSASVGDRVTITCRASSSVRYIYWFQQKPGKAPKLLIYATSFRQSGVPSRFSGSGSGTEYTLTISSLQPEDFATYYCHQRNSFPYTFGQGTKLEIKGGGGSGGGGSGGGGSGGGGSEVQLVQSGAEVKKPGASVKVSCKASGYTFTTYTIHWVRQAPGQGLEWMGYINPSSGYTRYNPKFKGRVTMTRDKSTSTAYMELRSLRSDDTAVYYCWTGRRDYWGQGTTVTVSSHHHHHH							98	98	98	99	97	98
TPP-7794 scFv with C-terminal 6xHIS tag (scFv) scFv: DIQLTQSPSFLSASVGDRVTITCRASSSVRYIYWFQQKPGKAPKLLIYATSFRQSGVPSRFSGSGSGTEYTLTISSLQPEDFATYYCHQRNSFPYTFGQGTKLEIKGGGGSGGGGSGGGGSGGGGSEVQLVQSGAEVKKPGASVKVSCKASGYTFTTYAIHWVRQAPGQGLEWMGYINPSSGYTRYNPKFKHRVTMTRDKSTSTAYMELRSLRSDDTAVYYCWTGTRDYWGQGTTVTVSSHHHHHH							85	85	85	85	85	85
